This passage reports binding % results from patent publication US20220054583A1 (ANBITION S R L, published 2022).

For assay [1], the target named is human recombinant receptor VEGFR-1, seven extracellular domains fused to the Fc domain of human IgG (R&D Systems, cat No 321-FL) (human) (UniProt P17948). The assay can be described thus: competition ELISA, residual binding of PlGF (5 ng/ml) to coated VEGFR-1-Fc, peptide 6250 nM. Background: An ELISA detects its analyte on a solid surface through an enzyme-linked reagent.

For assay [2] the target is unchanged. The assay can be described thus: competition ELISA, residual binding of VEGF-A (5 ng/ml) to coated VEGFR-1-Fc, peptide 50000 nM.
The target is the same in assay [3]. In words: competition ELISA, residual binding of VEGF-A (5 ng/ml) to coated VEGFR-1-Fc, peptide 12500 nM.
Assay [4] has the same target. The assay can be described thus: competition ELISA, residual binding of VEGF-A (5 ng/ml) to coated VEGFR-1-Fc, peptide 780 nM.
The target is the same in assay [5]. In words: competition ELISA, residual binding of PlGF (5 ng/ml) to coated VEGFR-1-Fc, peptide 3125 nM.
The target is the same in assay [6]. In words: competition ELISA, residual binding of PlGF (5 ng/ml) to coated VEGFR-1-Fc, peptide 1560 nM.
Assay [7] shares this target. The assay can be described thus: competition ELISA, residual binding of PlGF (5 ng/ml) to coated VEGFR-1-Fc, peptide 780 nM.
Assay [8] shares this target. In words: competition ELISA, residual binding of VEGF-A (5 ng/ml) to coated VEGFR-1-Fc, peptide 1560 nM.
For assay [9] the target is unchanged. In words: competition ELISA, residual binding of PlGF (5 ng/ml) to coated VEGFR-1-Fc, peptide 25000 nM.
The target is the same in assay [10]. The assay can be described thus: competition ELISA, residual binding of VEGF-A (5 ng/ml) to coated VEGFR-1-Fc, peptide 3125 nM.
Assay [11] has the same target. The assay can be described thus: competition ELISA, residual binding of VEGF-A (5 ng/ml) to coated VEGFR-1-Fc, peptide 6250 nM.
Assay [12] has the same target. In words: competition ELISA, residual binding of PlGF (5 ng/ml) to coated VEGFR-1-Fc, peptide 12500 nM.
For assay [13] the target is unchanged. In words: competition ELISA, residual binding of PlGF (5 ng/ml) to coated VEGFR-1-Fc, peptide 50000 nM.
For assay [14] the target is unchanged. In words: competition ELISA, residual binding of VEGF-A (5 ng/ml) to coated VEGFR-1-Fc, peptide 25000 nM.

human recombinant receptor VEGFR-1, seven extracellular domains fused to the Fc domain of human IgG (R&D Systems, cat No 321-FL) (human), sequence (P17948 27-758): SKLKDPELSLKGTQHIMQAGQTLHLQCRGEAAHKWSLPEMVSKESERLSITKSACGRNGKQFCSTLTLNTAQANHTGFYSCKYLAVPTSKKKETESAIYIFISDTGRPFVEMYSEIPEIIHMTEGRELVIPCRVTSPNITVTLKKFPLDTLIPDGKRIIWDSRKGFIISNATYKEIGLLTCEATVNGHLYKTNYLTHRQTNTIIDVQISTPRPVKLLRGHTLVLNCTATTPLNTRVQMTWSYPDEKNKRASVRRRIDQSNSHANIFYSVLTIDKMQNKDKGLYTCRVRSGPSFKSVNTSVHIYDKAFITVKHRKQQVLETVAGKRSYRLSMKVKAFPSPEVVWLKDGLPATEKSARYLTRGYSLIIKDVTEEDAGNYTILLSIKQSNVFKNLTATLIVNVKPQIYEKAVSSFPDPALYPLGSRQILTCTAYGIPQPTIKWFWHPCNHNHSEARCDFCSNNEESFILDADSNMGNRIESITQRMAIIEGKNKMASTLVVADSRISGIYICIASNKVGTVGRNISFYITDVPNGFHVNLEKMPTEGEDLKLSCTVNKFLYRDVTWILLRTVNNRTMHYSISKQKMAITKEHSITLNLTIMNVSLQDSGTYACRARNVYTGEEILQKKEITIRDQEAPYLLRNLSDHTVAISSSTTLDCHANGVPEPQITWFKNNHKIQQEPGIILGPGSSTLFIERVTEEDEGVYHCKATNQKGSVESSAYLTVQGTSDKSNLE

In the case of “control peptide (PC), (S-Ser)-(S-Ala)-(S-Cha) tripeptide with a tetrameric structure identical to the structure of the iVR1 peptides”, the binding % in assay [1] turned out to be 93.8%; in [2] it was 87.9%; in assay [3], 100%; in assay [4], 100%; in [5] it was 99.5%; in assay [6], 102%. The binding % in [7] was determined as 98.9%; in [8], 103%; in [9], 88.5%; in assay [10] it was 95.2%; in assay [11] it was 91.4%; in assay [12], 87.2%. Besides, the binding % in assay [13] was 90.2%; in assay [14], 93.4%.
